Here are results for 37 sequences from the Immune Epitope Database (IEDB).

The target in assay [1] is HLA-B*15:01. In words: IEDB peptide-MHC binding, purified MHC/competitive/fluorescence; filed as Kd, often an IC50 or EC50 that approximates it; ≥ and ≤ were set here for values at or beyond the usual limits of such assays.
Assay [2] deals with HLA-A*24:02. The assay is described as follows: IEDB peptide-MHC binding, purified MHC/competitive/fluorescence; ≥ and ≤ were set here for values at or beyond the usual limits of such assays.
Assay [3] concerns the target HLA-B*15:01. The assay is described as follows: IEDB peptide-MHC binding, purified MHC/competitive/radioactivity; filed as Kd, often an IC50 or EC50 that approximates it; ≥ and ≤ were set here for values at or beyond the usual limits of such assays.
The target in another assay is HLA-A*26:01. The assay is described as above.
For another assay, the target named is HLA-A*30:02. The description is as above.
A further assay deals with HLA-A*01:01. The description is as above.
A further assay addresses HLA-A*23:01. The description is as above.
The target of assay [4] is HLA-A*24:02. The description is as above.
A further assay concerns the target HLA-A*29:02. The assay is described as above.
Where [5] appears, read: source organism: Bacillus cereus G9241.
The mark [6] stands for this setting: source organism: Vaccinia virus WR.
[7] abbreviates: source organism: Dengue virus 3 Martinique/1243/1999.
Where [8] appears, read: source organism: Dengue virus 2 Jamaica/1409/1983.
[9] abbreviates: source organism: Zaire ebolavirus.
[10] abbreviates: source organism: SARS coronavirus Tor2.
Where [11] appears, read: source organism: Mammarenavirus lassaense.
Setting [12] is: source organism: Mammarenavirus choriomeningitidis.
Setting [13] is: source organism: Mammarenavirus machupoense.
Setting [14] is: source organism: Lymphocytic choriomeningitis virus (strain Armstrong).

Some results are limits rather than exact numbers.

The term Kd denotes the free concentration of one partner at which half of the binding sites on the other are occupied at equilibrium, for simple one-to-one binding. GIFGAIAGF: the dissociation constant (Kd) with HLA-B*15:01 [1] (source organism: Influenza A virus (A/equine/NewMarket/D64/79(H3N8))) came out at 288 nM.
As to RMNAVSTIL, the Kd with HLA-B*15:01 [1] (setting [5]) was 82.7 nM.
What is called IC50 is the concentration needed to halve the response being measured. Consider SNTTGRLIW, for which the concentration for half-maximal inhibition (IC50) with HLA-A*24:02 [2] (source organism: Sudan ebolavirus) was found to be 3610 nM.
On to NMRDLIVTF, for which the dissociation constant (Kd) in the assay with HLA-B*15:01 [3] (setting [6]) came out at 8.26 nM.
Same read-out and setting: the value for VISDLFPSF was 210 nM.
In the case of LMILLTGGAM, in the assay with HLA-B*15:01 [3] (setting [7]), the Kd amounted to 2.91 nM.
With RLRGEQRKTF, the Kd in the assay with HLA-B*15:01 [3] (source organism: Dengue virus 4 Philippines/H241/1956) came to 24.4 nM.
Take WLPMTVAAM: the Kd with HLA-B*15:01 [3] (source organism: Dengue virus 3 Sri Lanka/1266/2000) was determined as 177 nM.
In the case of KVIQLSRKTF, the Kd with HLA-B*15:01 [3] (setting [8]) turned out to be 49.5 nM.
On to NSIEYILSF, for which the equilibrium dissociation constant (Kd) with HLA-B*15:01 [3] (setting [6]) is 2260 nM.
Consider AQKRAAAGIM, for which, in the assay with HLA-B*15:01 [3] (setting [8]), the dissociation constant (Kd) is 68.7 nM.
With KNSQKGQHI, the half-maximal inhibitory concentration (IC50) with HLA-A*24:02 [2] (setting [9]) was at least 615000 nM.
The sequence LYPNVCIFG registered an IC50 with HLA-A*24:02 [2] (source organism: Vaccinia virus) of 71.6 nM.
As to EGAAIGLAW, the IC50 with HLA-A*24:02 [2] (setting [9]) was 2320 nM.
Turning to IEVKYSPMY, in the assay with HLA-B*15:01 [1] (setting [5]), the Kd came to 221 nM.
KGCKLTETM: the dissociation constant (Kd) in the assay with HLA-B*15:01 [3] (setting [6]) is 1250 nM.
DYGLVSKFM: in the assay with HLA-A*24:02 [2] (setting [6]), the half-maximal inhibitory concentration (IC50) came out at 559 nM.
Consider IGKALHQVF, for which the dissociation constant Kd with HLA-B*15:01 [3] (setting [8]) worked out at 374 nM.
In the case of EMCDDTVTY, the Kd with HLA-A*26:01 (setting [7]) was 11.2 µM; in the assay with HLA-A*30:02 (setting [7]) it was at least 76900 nM; with HLA-B*15:01 [3] (setting [7]), 99 nM.
For KIKHKGMSF, in the assay with HLA-B*15:01 [3] (setting [6]), the dissociation constant (Kd) stood at 47.2 nM.
As for STSQKSIVAY, the equilibrium dissociation constant (Kd) with HLA-A*01:01 (setting [10]) was 534 nM; with HLA-A*23:01 (setting [10]) it was at least 70 µM; with HLA-A*24:02 [4] (setting [10]), at least 70.3 µM; in the assay with HLA-A*26:01 (setting [10]), 0.79 µM; with HLA-A*29:02 (setting [10]), 44.5 nM; with HLA-A*30:02 (setting [10]), 17.1 nM.
Take VEIALYQPI: the Kd was at least 78100 nM in the assay with HLA-A*01:01 (setting [11]); 1.48 µM with HLA-A*23:01 (setting [11]); at least 38 µM with HLA-A*24:02 [4] (setting [11]); at least 77.9 µM with HLA-A*26:01 (setting [11]); at least 78900 nM with HLA-A*29:02 (setting [11]); at least 40100 nM in the assay with HLA-A*30:02 (setting [11]).
On to GLAAEWVLAY, for which the Kd in the assay with HLA-A*01:01 (setting [10]) is 466 nM; with HLA-A*23:01 (setting [10]), at least 70 µM; in the assay with HLA-A*24:02 [4] (setting [10]) it was at least 70.3 µM; in the assay with HLA-A*26:01 (setting [10]), 0.363 µM; in the assay with HLA-A*29:02 (setting [10]), 69.4 nM; in the assay with HLA-A*30:02 (setting [10]) it was 858 nM.
As for FLHNYILYA, the dissociation constant Kd in the assay with HLA-B*15:01 [3] (setting [6]) was 1560 nM.
On to WCSQTNYQY, for which the Kd with HLA-A*01:01 (setting [12]) is 964 nM; in the assay with HLA-A*23:01 (setting [12]) it was at least 77.7 µM; with HLA-A*24:02 [4] (setting [12]), at least 77.5 µM; with HLA-A*26:01 (setting [12]) it was at least 77.9 µM; with HLA-A*29:02 (setting [12]) it was 204 nM; with HLA-A*30:02 (setting [12]), 734 nM.
Consider MWLSYFVASF, for which the Kd was 1140 nM with HLA-A*01:01 (setting [10]); 0.000257 µM with HLA-A*23:01 (setting [10]); 0.0154 µM in the assay with HLA-A*24:02 [4] (setting [10]); 0.142 µM with HLA-A*26:01 (setting [10]); 38.5 nM with HLA-A*29:02 (setting [10]); 2400 nM with HLA-A*30:02 (setting [10]).
Take FWITAIYVF: the dissociation constant (Kd) with HLA-A*01:01 (setting [10]) is 629 nM; with HLA-A*23:01 (setting [10]), 0.163 µM; with HLA-A*24:02 [4] (setting [10]), 0.853 µM; with HLA-A*26:01 (setting [10]) it was 0.547 µM; with HLA-A*29:02 (setting [10]) it was 26.9 nM; with HLA-A*30:02 (setting [10]) it was 22.8 nM.
Turning to IQPFLALGF, the equilibrium dissociation constant (Kd) in the assay with HLA-B*15:01 [3] (setting [7]) was 16.5 nM.
For VTAETQNSSF, the equilibrium dissociation constant (Kd) with HLA-A*01:01 (setting [7]) was 16200 nM; in the assay with HLA-A*26:01 (setting [7]) it was at least 20.4 µM; with HLA-B*15:01 [3] (setting [7]), 25.9 nM.
Regarding LSSGEPHCA, the Kd in the assay with HLA-A*01:01 (setting [13]) was 4360 nM; with HLA-A*23:01 (setting [13]) it was at least 48 µM; with HLA-A*24:02 [4] (setting [13]) it was at least 77.5 µM; with HLA-A*26:01 (setting [13]), at least 77.9 µM; in the assay with HLA-A*29:02 (setting [13]), at least 78900 nM; with HLA-A*30:02 (setting [13]), 4600 nM.
VQKEGVFHTM: in the assay with HLA-B*15:01 [3] (setting [7]), the Kd amounted to 24.2 nM.
As for LMANLAPHL, the Kd was 6080 nM with HLA-A*01:01 (setting [10]); 11.8 µM in the assay with HLA-A*23:01 (setting [10]); at least 31.2 µM in the assay with HLA-A*24:02 [4] (setting [10]); at least 77.9 µM with HLA-A*26:01 (setting [10]); 3650 nM in the assay with HLA-A*29:02 (setting [10]); 12000 nM with HLA-A*30:02 (setting [10]).
LQHILIEYM: the Kd in the assay with HLA-B*15:01 [3] (setting [6]) came to 1220 nM.
Turning to LFRFFECTF, in the assay with HLA-B*15:01 [3] (setting [6]), the Kd worked out at 3030 nM.
Regarding FIDTIKSLDY, the equilibrium dissociation constant (Kd) is 458 nM in the assay with HLA-A*01:01 (setting [10]); at least 70 µM with HLA-A*23:01 (setting [10]); at least 70.3 µM with HLA-A*24:02 [4] (setting [10]); at least 24.9 µM in the assay with HLA-A*26:01 (setting [10]); 506 nM with HLA-A*29:02 (setting [10]); 4390 nM with HLA-A*30:02 (setting [10]).
Consider ASEFSSLPSY, for which the Kd was 14.1 nM with HLA-A*01:01 (setting [10]); at least 70 µM in the assay with HLA-A*23:01 (setting [10]); at least 70.3 µM with HLA-A*24:02 [4] (setting [10]); 11.9 µM in the assay with HLA-A*26:01 (setting [10]); 102 nM in the assay with HLA-A*29:02 (setting [10]); 47.4 nM with HLA-A*30:02 (setting [10]).
For SLSLISHVV, the Kd is at least 44700 nM with HLA-A*01:01 (setting [14]); at least 77.7 µM with HLA-A*23:01 (setting [14]); at least 77.5 µM in the assay with HLA-A*24:02 [4] (setting [14]); at least 77.9 µM in the assay with HLA-A*26:01 (setting [14]); at least 60400 nM with HLA-A*29:02 (setting [14]); 1440 nM with HLA-A*30:02 (setting [14]).
